Experimental findings from publication PMC9915769, “A novel binding site on the cryptic intervening domain is a motif-dependent regulator of O-GlcNAc transferase” (Research Square, 2023) are described below.

Non-standard residues stand in square brackets, D forms with d. No end group written: not given here. pY = N[C@@H](Cc1ccc(OP(=O)(O)O)cc1)C(=O)O

For one experiment, the target named is T1, OGT (Homo sapiens, UniProt O15294).
T1 construct: two OGT constructs, full-length OGT (OGT) and the protein crystallization construct OGT4.5; His6 (N); made in house; host or cells: E. coli BL21(DE3)
T1 sequence (O15294 1-1046): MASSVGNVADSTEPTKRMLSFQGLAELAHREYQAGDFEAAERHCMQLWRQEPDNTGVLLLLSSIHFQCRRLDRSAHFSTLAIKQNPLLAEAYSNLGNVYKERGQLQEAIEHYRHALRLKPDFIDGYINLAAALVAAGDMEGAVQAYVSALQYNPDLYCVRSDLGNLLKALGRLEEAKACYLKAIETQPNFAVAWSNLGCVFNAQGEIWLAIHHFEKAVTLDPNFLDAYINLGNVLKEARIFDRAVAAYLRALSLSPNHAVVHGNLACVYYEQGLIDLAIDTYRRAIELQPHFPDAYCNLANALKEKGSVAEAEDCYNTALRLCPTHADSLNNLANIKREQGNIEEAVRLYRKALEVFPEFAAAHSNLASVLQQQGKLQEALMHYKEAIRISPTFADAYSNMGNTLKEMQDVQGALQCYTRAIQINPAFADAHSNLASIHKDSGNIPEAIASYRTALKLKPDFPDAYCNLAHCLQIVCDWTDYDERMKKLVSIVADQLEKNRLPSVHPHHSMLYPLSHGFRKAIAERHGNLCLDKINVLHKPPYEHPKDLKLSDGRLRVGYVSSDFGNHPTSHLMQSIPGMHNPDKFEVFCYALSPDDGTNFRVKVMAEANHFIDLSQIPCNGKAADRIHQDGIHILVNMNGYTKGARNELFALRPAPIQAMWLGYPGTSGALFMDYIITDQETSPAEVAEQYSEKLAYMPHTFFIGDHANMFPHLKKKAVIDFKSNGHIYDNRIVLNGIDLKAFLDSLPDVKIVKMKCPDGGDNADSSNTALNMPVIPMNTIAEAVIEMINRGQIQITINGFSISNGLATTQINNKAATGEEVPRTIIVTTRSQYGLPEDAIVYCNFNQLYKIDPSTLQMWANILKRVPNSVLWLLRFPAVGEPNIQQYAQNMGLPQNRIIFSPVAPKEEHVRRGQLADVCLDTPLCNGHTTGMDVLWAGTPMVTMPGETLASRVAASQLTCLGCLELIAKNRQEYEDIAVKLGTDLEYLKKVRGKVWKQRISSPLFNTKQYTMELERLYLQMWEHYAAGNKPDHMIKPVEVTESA
The experiment can be described thus: Competitive fluorescence polarization (FP) binding assay with 5-FAM-SMG9 peptide. Particulars: FP competition with 5-FAM-SMG9 for OGT binding, TBS pH 8.0, n=3. How it is done:
All FP measurements were carried out in black small volume 384-well plates (Greiner Bio-One). For saturation binding assays, 2-fold serial dilutions of recombinantly purified OGT were prepared in TBS (150 mM NaCl, 20 mM Tris-HCl, pH 8.0). 5-FAM-SMG9 fluorescent peptide at 0.4 μM in TBS was added in equal volume to the OGT dilution series. For competition binding assays, 2-fold serial dilutions of unlabeled peptide were prepared in TBS. An equal volume of 20 μM OGT with 0.4 μM 5-FAM-SMG9 in TBS was added to the dilution series. After 20 min incubation in the dark at room temperature, FP was read on a BMG PheraStar multimode plate reader equipt with 488, 520, 520 FP filter cube (BMG Labtech).

Experiment [1] deals with fluorescently labeled 5-FAM-SMG9 peptide (human) (UniProt Q9H0W8). Nature of the experiment: fluorescence polarisation; saturation: 2-fold serial dilutions of OGT (WT or mutant) plus equal volume of 0.4 uM 5-FAM-SMG9; TBS (150 mM NaCl, 20 mM Tris-HCl, pH 8.0); 20 min, room temperature.
In the next experiment the test system is OGT I734R. The experiment can be described thus: Saturation FP binding assay, OGT mutant I734R. More on the design: species or system Human. Particulars: 5-FAM-SMG9 0.4 μM stock mixed 1:1, TBS pH 8.0, n=3. An excerpt:
(§1) To confirm the SMG9 peptide binding mode in our crystal structure, we mutated each of the two primary binding features: the hydrophobic pocket (F723, I734, and I787) and the bidentate donor N791, and measured their changes in binding affinity for SMG9 peptide. Each of the hydrophobic OGT residues were mutated to a glutamate or arginine, while the asparagine bidentate interaction was disrupted by mutation to alanine. Each mutated OGT construct was recombinantly expressed in E coli and purified at high concentration for FP saturation binding assays with fluorescent SMG9 peptide. Insertion of charged residues into the hydrophobic pocket (F723E, I734R, I787E, and I787R) as well as disruption of the bidentate backbone interaction (N791 A) each shifted EC50 values by >10-fold (Fig. 2d, Extended data Fig. 3a), showing that these mutations substantially disrupt SMG9 peptide binding.
(§2) All FP measurements were carried out in black small volume 384-well plates (Greiner Bio-One). For saturation binding assays, 2-fold serial dilutions of recombinantly purified OGT were prepared in TBS (150 mM NaCl, 20 mM Tris-HCl, pH 8.0). 5-FAM-SMG9 fluorescent peptide at 0.4 μM in TBS was added in equal volume to the OGT dilution series. […] After 20 min incubation in the dark at room temperature, FP was read on a BMG PheraStar multimode plate reader equipt with 488, 520, 520 FP filter cube (BMG Labtech).

Another experiment has as its system OGT I787R. Nature of the experiment: Saturation FP binding assay, OGT mutant I787R. More on the design: species or system Human. The conditions noted are these: 5-FAM-SMG9 0.4 μM stock mixed 1:1, TBS pH 8.0, n=3.
Description: as §1, §2

For another experiment, the system named is OGT N791A. Nature of the experiment: Saturation FP binding assay, OGT mutant N791A. More on the design: species or system Human. Particulars: 5-FAM-SMG9 0.4 μM stock mixed 1:1, TBS pH 8.0, n=3.
Description: as §1, §2

In the next experiment the test system is OGT F723E. The experiment can be described thus: Saturation FP binding assay, OGT mutant F723E. More on the design: species or system Human. Particulars: 5-FAM-SMG9 0.4 μM stock mixed 1:1, TBS pH 8.0, n=3.
Description: as §1, §2

For another experiment, the system named is OGT I787E. The experiment can be described thus: Saturation FP binding assay, OGT mutant I787E. More on the design: species or system Human. The conditions noted are these: 5-FAM-SMG9 0.4 μM stock mixed 1:1, TBS pH 8.0, n=3.
Description: as §1, §2

The target in experiment [2] is T2, full-length O-GlcNAc transferase (OGT), recombinant (human, UniProt O15294-3 1-1036).
T2 chain: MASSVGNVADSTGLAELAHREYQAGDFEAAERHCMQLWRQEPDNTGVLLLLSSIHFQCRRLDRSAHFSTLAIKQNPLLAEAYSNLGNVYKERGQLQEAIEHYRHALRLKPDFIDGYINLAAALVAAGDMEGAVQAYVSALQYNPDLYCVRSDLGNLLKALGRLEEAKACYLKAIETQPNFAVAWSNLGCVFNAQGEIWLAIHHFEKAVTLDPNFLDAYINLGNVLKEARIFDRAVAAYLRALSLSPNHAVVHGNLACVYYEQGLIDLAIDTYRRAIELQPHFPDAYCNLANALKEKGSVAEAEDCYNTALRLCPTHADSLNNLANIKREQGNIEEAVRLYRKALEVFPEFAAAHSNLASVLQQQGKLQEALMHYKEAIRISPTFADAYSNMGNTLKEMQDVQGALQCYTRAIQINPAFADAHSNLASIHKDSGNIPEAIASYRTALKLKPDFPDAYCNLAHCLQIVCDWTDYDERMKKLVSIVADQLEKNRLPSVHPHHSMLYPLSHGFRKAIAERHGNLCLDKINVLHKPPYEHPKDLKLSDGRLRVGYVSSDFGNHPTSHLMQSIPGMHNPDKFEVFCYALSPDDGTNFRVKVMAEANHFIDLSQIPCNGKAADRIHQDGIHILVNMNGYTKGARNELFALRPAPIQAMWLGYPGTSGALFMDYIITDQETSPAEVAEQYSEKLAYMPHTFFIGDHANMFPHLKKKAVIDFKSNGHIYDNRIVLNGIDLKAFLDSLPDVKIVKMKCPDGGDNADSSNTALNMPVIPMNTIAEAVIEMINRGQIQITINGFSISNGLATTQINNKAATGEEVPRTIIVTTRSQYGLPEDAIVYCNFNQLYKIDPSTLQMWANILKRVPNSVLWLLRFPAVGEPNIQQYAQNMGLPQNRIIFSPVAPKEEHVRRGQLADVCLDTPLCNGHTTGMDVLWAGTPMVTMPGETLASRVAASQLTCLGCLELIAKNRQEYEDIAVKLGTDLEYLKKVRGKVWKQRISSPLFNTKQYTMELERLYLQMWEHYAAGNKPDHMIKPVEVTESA
Nature of the experiment: MST.

With “SMG9 pY147: phosphorylated SMG9 peptide (pY147) (QRPTQPV[pY]QIQNRGMG)”, the “peptide binding to OGT (FP competition)” value in the experiment with OGT is reported as “significantly disrupted peptide binding”.
Turning to “OGT I787E, recombinant (from UniProt O15294-3 1-1036) (enzyme)”, the fold shift in EC50 against wild-type OGT in experiment [1] was > 10 fold.
For “5-FAM-SMG9 peptide: fluorescently labeled 5-FAM SMG9 peptide, probe for MST and FP assays (QRPTQPVYQIQNRGMG; not fully specified (N-terminus); also: 5-FAM label, position not given here)”, the “fold shift in EC50 relative to wild-type OGT” value with OGT I734R, in the experiment on OGT I787R, in the experiment on OGT N791A, in the experiment with OGT F723E and with OGT I787E was > 10 fold each time.
In the case of “OGT I787R, recombinant (from UniProt O15294-3 1-1036) (enzyme)”, in experiment [1], the fold shift in EC50 against wild-type OGT was > 10 fold.
Same read-out and setting: for OGT N791A, recombinant (enzyme) the value was > 10 fold.
Consider “SMG9 Y147F: SMG9 peptide with Y147F mutation (QRPTQPVFQIQNRGMG)”, for which the “fold shift in EC50 relative to WT SMG9 peptide” value in the experiment with OGT is > 10 fold.
Turning to OGT I734R, recombinant (enzyme), the fold shift in EC50 against wild-type OGT in experiment [1] was > 10 fold.
Still for that read-out and setting: for OGT F723E, recombinant (enzyme) the value was > 10 fold.

B1: fluorescently labeled 5-FAM-SMG9 peptide (peptide, UniProt Q9H0W8 140-155, looked up)
peptide: QRPTQPVYQIQNRGMG
modifications: not fully specified (N-terminus); also: 5-FAM label, position not given here
notes: SMG9, human, 16-mer peptide with the PxYx[I/L] motif, residues 140-155 as stated for the SMG9 peptide; The limits 140-155 are printed for the SMG9 peptide of the crystal; the labelled peptide bears the same name; also called fluorescent SMG9 peptide; source: synthetic peptide (solid phase peptide synthesis, Ontores)
For B1, the Kd in experiment [2] came out at 13.1 µM.
